The values below come from the supplement of paper PMC5998384.

The test system of data set [1] is HeLa Kyoto. Briefly: melting temperature (median over replicates), in situ; higher = more thermally stable.
Data set [2] relates to HeLa Kyoto. Briefly: solubility in G1/S (NP-40 vs SDS abundance) (log2 ratio); higher = more soluble. Conditions: cell cycle stage: G1/S.
Data set [3] relates to HeLa Kyoto. As to the kind of experiment: thermal stability score vs G1/S (z-score of summed log2 fold changes over temperatures); higher = more thermally stable than in G1/S.
Data set [4] has as its system HeLa Kyoto. As to the kind of experiment: solubility change mitosis vs G1/S (difference of NP-40 vs SDS log2 ratios) (log2 ratio difference); higher = more soluble in mitosis.
The mark [5] stands for this setting: cell cycle stage: early G1 (4.5 h after nocodazole release).
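Wherever melting temperature (median over replicates), in situ is given: HeLa Kyoto cells synchronized by double thymidine or nocodazole block, proteins quantified by TMT10plex mass spectrometry, three independent biological replicates.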
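Wherever solubility change mitosis vs G1/S (difference of NP-40 vs SDS log2 ratios) is given: synchronized HeLa Kyoto cells (double thymidine block for G1/S, nocodazole release for mitosis), protein amounts in NP-40 versus SDS lysates quantified by mass spectrometry, three biological replicates.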
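Wherever solubility in G1/S (NP-40 vs SDS abundance) is given: HeLa Kyoto cells arrested at G1/S by double thymidine block, proteins quantified by TMT10plex mass spectrometry in mild NP-40 versus SDS extracts, three biological replicates.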
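Wherever thermal stability score vs G1/S (z-score of summed log2 fold changes over temperatures) is given: synchronized HeLa Kyoto cells, proteins quantified by TMT10plex mass spectrometry, three biological replicates, mitosis taken 0.5 h after nocodazole release, G1/S directly after double thymidine block.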

For the substance “MGQGPRSPHKVGRRFPAGGKRGRGAKGSGRPLPGRKRQPWPPPDGRSEPAPDSHPHLSPEALGYFRRALSALKEAPETGEERDLMVHNIMKEVETQALALSTNRTGSEMLQELLGFSPLKPLCRVWAALRSNLRTVACHRCGVHVLQSALLQLPRLLGSAAEEEEEEEEDGKDGPTETLEELVLGLAAEVCDDFLVYCGDTHGSFVVRTLLQVLGGTILESERARPRGSQSSEAQKTPAQECKPADFEVPETFLNRLQDLSSSFLKDIAVFITDKISSFCLQVALQVLHRKLPQFCAHLCNAVIGYLSTRGSSVDGSPLLLFLRDQTSSRLLEQVLLVLEPPRLQSLFEEHLQGQLQTLAAHPIANFPLQRLLDAVTTPELLSPVFEELSPVLEAVLAQGHPGVVIALVGACRRVGAYQAKVLQLLLEAFHCAEPSSRQVACVPLFATLMAYEVYYGLTEEEGAVPAEHQVAMAAARALGDVTVLGSLLLQHLLHFSTPGLVLRSLGALTGPQLLSLAQSPAGSHVLDAILTSPSVTRKLRRRVLQNLKGQYVALACSRHGSRVLDAIWSGAALRARKEIAAELGEQNQELIRDPFGHHVARNVALTTFLKRREAWEQQQGAVAKRRRALNSILED [NOP9]”, the melting temperature in the data set with HeLa Kyoto [1] (cell cycle stage: G1/S) and in the data set with HeLa Kyoto [1] (cell cycle stage: mitosis) was 49.1 °C each time. In addition, the “solubility in G1/S (log2)” value in the data set with HeLa Kyoto [2] is -0.0623. The results for the thermal stability score in the data set with HeLa Kyoto [3] (setting [5]) and with HeLa Kyoto [3] (cell cycle stage: mitosis) were 0.433 and 0.684, respectively. For the same substance, in the data set on HeLa Kyoto [4], the “solubility change mitosis (log2)” value was 0.2.
“MGAFLDKPKTEKHNAHGAGNGLRYGLSSMQGWRVEMEDAHTAVVGIPHGLEDWSFFAVYDGHAGSRVANYCSTHLLEHITTNEDFRAAGKSGSALELSVENVKNGIRTGFLKIDEYMRNFSDLRNGMDRSGSTAVGVMISPKHIYFINCGDSRAVLYRNGQVCFSTQDHKPCNPREKERIQNAGGSVMIQRVNGSLAVSRALGDYDYKCVDGKGPTEQLVSPEPEVYEILRAEEDEFIILACDGIWDVMSNEELCEYVKSRLEVSDDLENVCNWVVDTCLHKGSRDNMSIVLVCFSNAPKVSDEAVKKDSELDKHLESRVEEIMEKSGEEGMPDLAHVMRILSAENIPNLPPGGGLAGKRNVIEAVYSRLNPHRESDGASDEAEESGSQGKLVEALRQMRINHRGNYRQLLEEMLTSYRLAKVEGEESPAEPAATATSSNSDAGNPVTMQESHTESESGLAELDSSNEDAGTKMSGEKI [PPM1B]”: the melting temperature in the data set on HeLa Kyoto [1] (cell cycle stage: G1/S) amounted to 52.9 °C; with HeLa Kyoto [1] (cell cycle stage: mitosis), 52.6 °C. Besides, in the data set on HeLa Kyoto [2], the “solubility in G1/S (log2)” value is -0.164. The values for the thermal stability score in the data set with HeLa Kyoto [3] (setting [5]) and with HeLa Kyoto [3] (cell cycle stage: mitosis) were 0.54 and -0.803, respectively. The “solubility change mitosis (log2)” value in the data set on HeLa Kyoto [4] was determined as 0.0659.
On to “MAPNIYLVRQRISRLGQRMSGFQINLNPLKEPLGFIKVLEWIASIFAFATCGGFKGQTEIQVNCPPAVTENKTVTATFGYPFRLNEASFQPPPGVNICDVNWKDYVLIGDYSSSAQFYVTFAVFVFLYCIAALLLYVGYTSLYLDSRKLPMIDFVVTLVATFLWLVSTSAWAKALTDIKIATGHNIIDELPPCKKKAVLCYFGSVTSMGSLNVSVIFGFLNMILWGGNAWFVYKETSLHSPSNTSAPHSQGGIPPPTGI [SYPL1]”, for which the figures for the melting temperature with HeLa Kyoto [1] (cell cycle stage: G1/S) and in the data set on HeLa Kyoto [1] (cell cycle stage: mitosis) were 56.1 °C and 56.9 °C, respectively. For the same substance, in the data set with HeLa Kyoto [2], the “solubility in G1/S (log2)” value was -0.227. Besides, the thermal stability score in the data set with HeLa Kyoto [3] (setting [5]) is -3.54; in the data set with HeLa Kyoto [3] (cell cycle stage: mitosis), -3.06. The “solubility change mitosis (log2)” value in the data set with HeLa Kyoto [4] turned out to be 0.0843.
Regarding ZCCHC11, the figures for the melting temperature with HeLa Kyoto [1] (cell cycle stage: G1/S) and in the data set on HeLa Kyoto [1] (cell cycle stage: mitosis) were 50.6 °C and 49.4 °C, respectively. Besides, in the data set with HeLa Kyoto [2], the “solubility in G1/S (log2)” value is -0.0583. Moreover, the results for the thermal stability score in the data set with HeLa Kyoto [3] (setting [5]) and in the data set with HeLa Kyoto [3] (cell cycle stage: mitosis) were 0.72 and 1.31, respectively. The “solubility change mitosis (log2)” value with HeLa Kyoto [4] was -0.11.
Regarding “MNPESSIFIEDYLKYFQDQVSRENLLQLLTDDEAWNGFVAAAELPRDEADELRKALNKLASHMVMKDKNRHDKDQQHRQWFLKEFPRLKRELEDHIRKLRALAEEVEQVHRGTTIANVVSNSVGTTSGILTLLGLGLAPFTEGISFVLLDTGMGLGAAAAVAGITCSVVELVNKLRARAQARNLDQSGTNVAKVMKEFVGGNTPNVLTLVDNWYQVTQGIGRNIRAIRRARANPQLGAYAPPPHVIGRISAEGGEQVERVVEGPAQAMSRGTMIVGAATGGILLLLDVVSLAYESKHLLEGAKSESAEELKKRAQELEGKLNFLTKIHEMLQPGQDQ [APOL2]”, the results for the melting temperature with HeLa Kyoto [1] (cell cycle stage: G1/S) and in the data set with HeLa Kyoto [1] (cell cycle stage: mitosis) were 50 °C and 50.8 °C, respectively. Also, in the data set with HeLa Kyoto [2], the “solubility in G1/S (log2)” value amounted to 0.309. The thermal stability score turned out to be 4.12 with HeLa Kyoto [3] (setting [5]) and 3.26 in the data set on HeLa Kyoto [3] (cell cycle stage: mitosis). Further, the “solubility change mitosis (log2)” value in the data set with HeLa Kyoto [4] is 0.0238.
Consider “MGDAPSPEEKLHLITRNLQEVLGEEKLKEILKERELKIYWGTATTGKPHVAYFVPMSKIADFLKAGCEVTILFADLHAYLDNMKAPWELLELRVSYYENVIKAMLESIGVPLEKLKFIKGTDYQLSKEYTLDVYRLSSVVTQHDSKKAGAEVVKQVEHPLLSGLLYPGLQALDEEYLKVDAQFGGIDQRKIFTFAEKYLPALGYSKRVHLMNPMVPGLTGSKMSSSEEESKIDLLDRKEDVKKKLKKAFCEPGNVENNGVLSFIKHVLFPLKSEFVILRDEKWGGNKTYTAYVDLEKDFAAEVVHPGDLKNSVEVALNKLLDPIREKFNTPALKKLASAAYPDPSKQKPMAKGPAKNSEPEEVIPSRLDIRVGKIITVEKHPDADSLYVEKIDVGEAEPRTVVSGLVQFVPKEELQDRLVVVLCNLKPQKMRGVESQGMLLCASIEGINRQVEPLDPPAGSAPGEHVFVKGYEKGQPDEELKPKKKVFEKLQADFKISEECIAQWKQTNFMTKLGSISCKSLKGGNIS [YARS]”, for which the values for the melting temperature with HeLa Kyoto [1] (cell cycle stage: G1/S) and in the data set on HeLa Kyoto [1] (cell cycle stage: mitosis) were 49.3 °C and 49.4 °C, respectively. The “solubility in G1/S (log2)” value in the data set with HeLa Kyoto [2] worked out at 0.259. The thermal stability score in the data set with HeLa Kyoto [3] (setting [5]) turned out to be 0.25; in the data set with HeLa Kyoto [3] (cell cycle stage: mitosis), 2.33. In addition, the “solubility change mitosis (log2)” value in the data set on HeLa Kyoto [4] was -0.092.
For the substance “MAAEIHSRPQSSRPVLLSKIEGHQDAVTAALLIPKEDGVITASEDRTIRVWLKRDSGQYWPSIYHTMASPCSAMAYHHDSRRIFVGQDNGAVMEFHVSEDFNKMNFIKTYPAHQNRVSAIIFSLATEWVISTGHDKCVSWMCTRSGNMLGRHFFTSWASCLQYDFDTQYAFVGDYSGQITLLKLEQNTCSVITTLKGHEGSVACLWWDPIQRLLFSGASDNSIIMWDIGGRKGRTLLLQGHHDKVQSLCYLQLTRQLVSCSSDGGIAVWNMDVSREEAPQWLESDSCQKCEQPFFWNIKQMWDTKTLGLRQHHCRKCGQAVCGKCSSKRSSYPVMGFEFQVRVCDSCYDSIKDEDRTSLATFHEGKHNISHMSMDIARGLMVTCGTDRIVKIWDMTPVVGCSLATGFSPH [WDFY1]”, the melting temperature worked out at 54.2 °C with HeLa Kyoto [1] (cell cycle stage: G1/S) and 54.5 °C with HeLa Kyoto [1] (cell cycle stage: mitosis). For the same substance, the “solubility in G1/S (log2)” value with HeLa Kyoto [2] was -0.607. The thermal stability score in the data set on HeLa Kyoto [3] (setting [5]) is 1.13; in the data set on HeLa Kyoto [3] (cell cycle stage: mitosis) it was -1.04. For the same substance, the “solubility change mitosis (log2)” value in the data set on HeLa Kyoto [4] was -0.0745.
As to HCFC1, the melting temperature in the data set with HeLa Kyoto [1] (cell cycle stage: G1/S) was found to be 52.5 °C; in the data set on HeLa Kyoto [1] (cell cycle stage: mitosis), 52.7 °C. For the same substance, in the data set on HeLa Kyoto [2], the “solubility in G1/S (log2)” value is 0.179. In addition, the thermal stability score was -0.303 in the data set with HeLa Kyoto [3] (setting [5]) and 0.00236 in the data set with HeLa Kyoto [3] (cell cycle stage: mitosis). Also, the “solubility change mitosis (log2)” value in the data set on HeLa Kyoto [4] is -0.0808.
